Measured values reported in US20210238276A1 (INTEGRAL MOLECULAR, published 2021).
Numbering of substitutions follows the chain as printed. Blank lines part the entries; values can stand above or below the molecule they belong to.

What was measured:
Assay in all cases: flow cytometry, alanine-scan library in HEK-293T
hsGLUT4 P66A = biological target: T1, hsGLUT4 P66A (human, UniProt P14672 1-509)
T1 sequence: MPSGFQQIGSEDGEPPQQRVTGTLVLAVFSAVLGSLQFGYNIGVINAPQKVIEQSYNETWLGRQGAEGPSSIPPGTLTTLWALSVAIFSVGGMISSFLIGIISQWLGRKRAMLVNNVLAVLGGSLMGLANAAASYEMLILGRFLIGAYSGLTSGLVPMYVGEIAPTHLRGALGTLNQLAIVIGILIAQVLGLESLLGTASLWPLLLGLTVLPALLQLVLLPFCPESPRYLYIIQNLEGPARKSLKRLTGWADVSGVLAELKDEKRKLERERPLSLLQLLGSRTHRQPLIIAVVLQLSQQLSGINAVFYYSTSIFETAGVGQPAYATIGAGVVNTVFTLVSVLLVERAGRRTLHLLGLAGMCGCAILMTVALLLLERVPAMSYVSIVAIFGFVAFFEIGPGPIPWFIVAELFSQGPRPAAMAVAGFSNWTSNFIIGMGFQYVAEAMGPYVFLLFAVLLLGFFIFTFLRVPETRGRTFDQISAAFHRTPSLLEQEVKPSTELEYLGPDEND
Procedure, shortened: (§1)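 HEK-293T cells expressing individual GLUT4 alanine mutants were stained 48 h post-transfection with anti-GLUT4 scFv MAbs (2 μg/ml), then biotinylated secondary and streptavidin-PerCP, and read by high-throughput flow cytometry. Where used, cytochalasin B (10 uM final) was given for 30 min before and during primary antibody staining.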

hsGLUT4 M112A = biological target: T2, hsGLUT4 M112A (human, UniProt P14672 1-509)
T2 sequence: T1 sequence with A66P, M112A
Procedure, shortened: as §1

hsGLUT4 Q298A = biological target: T3, hsGLUT4 Q298A (human, UniProt P14672 1-509)
T3 sequence: T1 sequence with A66P, Q298A
Procedure, shortened: as §1

hsGLUT4 N508A = biological target: T4, hsGLUT4 N508A (human, UniProt P14672 1-509)
T4 sequence: T1 sequence with A66P, N508A
Procedure, shortened: as §1

- % of binding to wild type GLUT4 (hsGLUT4 P66A): 78%
- % of binding to wild type GLUT4 (hsGLUT4 M112A): 120%
- % of binding to wild type GLUT4 (hsGLUT4 Q298A): 87%
- % of binding to wild type GLUT4 (hsGLUT4 N508A): 21%
Molecule: 1F8 (antibody)

B1: AB108 (Fc fusion)
scFv: ALTQPSSVSANLGGTVKITCSGSSGSYGWYQQKAPGSAPVTLIYRNDKRPSDIPSRFSGSESGSTGTLTITGVQAEDEAVYFCGGYDSSAGYAAFGAGTTLTVLGQSSRSSGGGGSSGGGGSAVTLDESGGGLQTPGGALSLVCKASGFTFSSHGMGWVRQAPGKGLEWVGSISTGRYTFYAPAVKGRATISRDNGQSTLRLQLNNLRAEDTGTYYCTKCAGLNGCGGGEIDAWGHGTEVIVSS
notes: Bivalent scFv-Fc; also called MAb AB108; not shown: Fc fragment of human IgG1, cloned in frame with the scFv
- % of binding to wild type GLUT4 (hsGLUT4 P66A): 11%
- % of binding to wild type GLUT4 (hsGLUT4 M112A): 57%
- % of binding to wild type GLUT4 (hsGLUT4 Q298A): 78%
- % of binding to wild type GLUT4 (hsGLUT4 N508A): 89%

- % of binding to wild type GLUT4 (hsGLUT4 P66A): 91%
- % of binding to wild type GLUT4 (hsGLUT4 M112A): 103%
- % of binding to wild type GLUT4 (hsGLUT4 Q298A): 107%
- % of binding to wild type GLUT4 (hsGLUT4 N508A): 7%
B2: AB101 (scFv)
scFv: ALTQPSSVSANPGETVKITCSGSSNSYGWYQQKSPGSAPVTVIYYNDKRPSDIPSRFSGSKSDSTHTLTITGVRAEDEAVYFCGSYDSTYVGIFGAGTTLTVLGQSSRSSGGGGSSGGGGSAVTLDESGGGLQTPGGTLSLVCKASGFTFSSNAMGWVRQAPGKGLEWVAGISSDGRYTKYGSAVKGRATISRDNGQSTVRLQLNNLRAEDTGTYFCAKAFGNNYRRIYAGQIDAWGHGTEVIVSS
notes: Chicken-derived clone used as a control; the four lead clones were tested as scFv-human IgG1 Fc; also called MAb AB101

B3: AB111 (Fc fusion)
scFv: ALTQPSSVSANPGETVKITCSGSGSWYGWFQQKSPGSAPVTVIYSNDKRPSDIPSRFSGSKSGSTSTLTITGVQVEDEAVYYCGNWDIFGAGTTLTVLGQSSRSSGGGGSSGGGGSAVTLDESGGGLQTPGGALSLVCKASGFTFSSHGMGWVRQAPGKGLEWVASISTGRYTFYAPAVKGRATISRDNGQSTVRLQLNNLRAEDTATYYCTKCAGLNGCGGGEIDAWGHGTEVIVSS
notes: Bivalent scFv-Fc; also called MAb AB111; not shown: Fc fragment of human IgG1, cloned in frame with the scFv
- % of binding to wild type GLUT4 (hsGLUT4 P66A): 90%
- % of binding to wild type GLUT4 (hsGLUT4 M112A): 79%
- % of binding to wild type GLUT4 (hsGLUT4 Q298A): 145%
- % of binding to wild type GLUT4 (hsGLUT4 N508A): 193%
